Tests used:
HuR (ELAV, ELAVL1) [1] = target: T1, HuR (ELAV, ELAVL1) (Homo sapiens, UniProt Q15717 SEQ:1-326); assay: EMSA; settings: tags: N-terminal GST (pGEX-5X-1), E. coli BL21, label: 32P-UTP
HuR (ELAV, ELAVL1) [2] = target: T1, HuR (ELAV, ELAVL1); assay: SPR; GST-HuR captured on CM5 chip; HBS-EP buffer; settings: tags: N-terminal GST (pGEX-5X-1), E. coli BL21; 3-pronged stem-loop (predicted)
Description: Specific protein-RNA interactions were detected by Surface Plasmon Resonance using the BIACore X optical biosensor (Pharmacia Biosensor AB, Upsala, Sweden).
The GST-fusion proteins of interest (GST alone or GST-ELAV (HuR)) were immobilized onto the surface of a CM5 Chip (Pharmacia Biosensor AB, Upsala, Sweden) by using the BIACore GST Capture Kit (Pharmacia Biosensor AB, Upsala, Sweden), according to the manufacturers instructions, until a change of at least 1,000 resonance units (RU) was detectable.
1 μg of in vitro transcribed RNA (using the T7/SP6 Riboprobe Kit, Promega, Mannheim, Germany) was diluted in a total volume of 80 μl HBS-EP buffer (10 mM HEPES, 150 mM NaCl, 3 mM EDTA, 0.005% (v/v) polysorbate 20) and was allowed to flow over the chip at a flow rate of 50μl/minute. The standard running buffer was HBS-EP buffer. The sensor surface was regenerated between assays by injecting 30 μl of 0.5 M NaCl to remove bound analyte.

T1 sequence (Q15717 whole entry T180A): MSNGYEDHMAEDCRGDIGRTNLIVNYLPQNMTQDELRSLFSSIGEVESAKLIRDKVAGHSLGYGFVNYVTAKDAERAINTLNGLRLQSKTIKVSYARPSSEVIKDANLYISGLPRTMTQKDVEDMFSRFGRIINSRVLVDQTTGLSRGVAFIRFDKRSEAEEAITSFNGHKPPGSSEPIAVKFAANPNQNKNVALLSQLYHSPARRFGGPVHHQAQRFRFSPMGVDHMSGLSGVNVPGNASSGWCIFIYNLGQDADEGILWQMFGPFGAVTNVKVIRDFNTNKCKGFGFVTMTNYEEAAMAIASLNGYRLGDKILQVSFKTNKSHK

B1: CD83 RNA nt466-618 (stem-loop-2) (ssRNA)
RNA: UUAACACUCAUCAUUUUCACUUGUAAGUUUGCACGGCUACAGAGUAUCUUCCCAGAUUUUUCUAAAGCUGGCAUGGAACGAGCUUUUCUCCCAGUUACCUCCCCAAAUAAGCAUUUAGGGCUAGUGACUCCUCACAAGACAGAACUGGUAUGA
binding result (HuR (ELAV, ELAVL1) [1]; 3-pronged stem-loop (predicted)): binds

B2: CD83 RNA nt466-615 (stem-loop-2) (ssRNA)
RNA: UUAACACUCAUCAUUUUCACUUGUAAGUUUGCACGGCUACAGAGUAUCUUCCCAGAUUUUUCUAAAGCUGGCAUGGAACGAGCUUUUCUCCCAGUUACCUCCCCAAAUAAGCAUUUAGGGCUAGUGACUCCUCACAAGACAGAACUGGUA
binding result (HuR (ELAV, ELAVL1) [2]): binds

B3: CD83 RNA nt295-465 (stem-loop-1) (ssRNA)
RNA: AGCUGCAACUCGGGGACAUACAGGUGCACUCUGCAGGACCCGGAUGGGCAGAGAAACCUAAGUGGCAAGGUGAUCUUGAGAGUGACAGGAUGCCCUGCACAGCGUAAAGAAGAGACUUUUAAGAAAUACAGAGCGGAGAUUGUCCUGCUGCUGGCUCUGGUUAUUUUCUAC
binding result (HuR (ELAV, ELAVL1) [1]; single stem-loop (nt412-465, predicted)): binds
